Laboratory results taken from patent US20070066516A1, “Compounds comprising cyclized somatostatin receptor binding peptides” (priority 2005, published 2007).
Blank lines part the entries; values can stand above or below the molecule they belong to. Where a SMILES comes first, the peptide text is derived from it. Side-chain parts run from the residue outwards. [ ]: non-standard residue; d: D form. The star is where a group is joined. X1 = CC(C(=O)*)N1CCN(CC(=O)O)CCN(CC(=O)O)CCN(CC(=O)O)CC1; Tpi = O=C(O)[C@@H]1Cc2c([nH]c3ccccc23)CN1; Dip = N[C@H](C(=O)O)C(c1ccccc1)c1ccccc1; Phe(4-F) = N[C@@H](Cc1ccc(F)cc1)C(=O)O; 1Nal = N[C@@H](Cc1cccc2ccccc12)C(=O)O; Ala(cPr) = N[C@@H](CC1CC1)C(=O)O; NMeF = CN[C@@H](Cc1ccccc1)C(=O)O; Thz = O=C(O)[C@@H]1CSCN1; Dap = NC[C@H](N)C(=O)O

Tests used:
SSTR5 = SSTR5 (Homo sapiens, UniProt P35346); experiment: Radioligand binding assay on membranes of CHO-K1 cells expressing SSTR5; details: ratio of IC50 SSTR2 / IC50 SSTR5 in %
Experimental: Radiolabeling binding assays were carried out as described in the prior art like, e.g. in Gazal S. et al (2002) J. Med. Chem. 45: 1665-1671. The radioligand binding assays were carried out on membranes prepared from CHO-K1 cells stably expressing individually cloned somatostatin receptors 2 or 5 (SSTR2 or SSTR5). Cells were grown for 2 days for almost confluence and were washed and scraped into 50 mM ice-cold Tris-HCl, pH 7.8, containing 1 mM EGTA, 5 mM MgCl2, […], 0.1 mM PMSF, and 0.5 mg/mL aprotinin (buffer A) and were centrifuged at 10,000 rpm for 10 min at 4° C. (in Sorvall RC 26 Plus ultracentrifuge, rotor SS-34). The pellet was resuspended in buffer A and homogenized with a Polytron PT 1200 homogenizer (Kinematica AG, Switzerland) (setting 2, 3 strokes 10 s each). The homogenate was then centrifuged at 20 000 rpm for 20 min at 4° C. The pellet was resuspended in buffer A and homogenized using the Polytron homogenizer (setting 2, 3 strokes 5 s each). The protein content was determined by Bradford, and the membrane preparation was diluted in buffer A containing 1 mg/mL bovine serum albumin (BSA) to a final 0.2 or 0.4 mg/mL membrane protein (depending on the specific somatostatin receptor used).
The radioligand binding assay was performed in 96 well microtiter plates (Maxisorp plates, Nunc, Denmark). Cell membranes ([…] protein) were incubated with the various cyclized peptides indicated in Table 1 & 2, which comprised a lanthanide chelation unit, in a final volume of 250 μL, for 45 min. at room temperature in the presence or absence of competing peptides. Nonspecific binding was defined as the radioactivity remaining bound in the presence of […] somatostatin. At the end of the binding, reaction free radioligand was separated from bound Ligand by rapid filtration through UniFilter GF/C plates preincubated in a solution of 5 g/L polyethyleneimine and 1 g/L BSA. The filtration was performed in Filter-Mate Cell Harvester (Packard Instrument Company, U.S.A.). After filtration, the filters were washed several times with cold buffer A containing 1 mg/mL BSA and allowed to dry overnight at room temperature. Then, bound radioactivity was counted. The binding assays were performed in triplicate wells. Data from radioligand binding were used to generate inhibition curves, and IC50 values were determined for each of the tested peptides. The saturation binding data were analyzed by the method of Scatchard, and IC50 values are expressed as mean±SEM (standard error of the mean).

somatostatin receptor 5 = biological target: T1, somatostatin receptor 5 (UniProt P35346 1-364, limits assumed); experiment: ratio of IC50 on SSTR2 to IC50 on SSTR5 (reference SSTR2), radioligand competition binding on CHO-K1 membranes
T1 construct: whole, on cells; Assayed as membrane preparation of CHO-K1 cells stably expressing the cloned receptor; also called SSTR5; somatostatin receptor subtype 5
T1 sequence (P35346 whole entry): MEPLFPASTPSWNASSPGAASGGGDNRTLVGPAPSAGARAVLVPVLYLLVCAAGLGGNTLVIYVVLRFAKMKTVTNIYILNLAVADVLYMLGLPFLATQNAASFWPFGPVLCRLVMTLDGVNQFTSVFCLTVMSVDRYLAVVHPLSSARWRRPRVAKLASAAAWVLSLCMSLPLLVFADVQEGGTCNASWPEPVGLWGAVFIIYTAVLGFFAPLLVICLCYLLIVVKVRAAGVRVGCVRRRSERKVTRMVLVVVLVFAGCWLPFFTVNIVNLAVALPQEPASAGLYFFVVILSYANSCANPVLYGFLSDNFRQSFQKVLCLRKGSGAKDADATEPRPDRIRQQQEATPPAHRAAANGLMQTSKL

Sequence of SSTR5 (P35346 whole entry): as above

B1: P2278 (peptide)
peptide: cyclo([1Nal][dW]KTM[NMeF])
modifications: also: tested peptides comprised a lanthanide chelation unit, not shown
notes: also called cyclo[(1)Nal-DTrp-Lys-Thr-Met-(NMe)Phe]
- Ratio 2/5 in % (somatostatin receptor 5): 27.9%

B2: P2329 (peptide)
peptide: cyclo([1Nal][dW]KVM[NMeF])
SMILES: CSCC[C@@H]1NC(=O)[C@H](C(C)C)NC(=O)[C@H](CCCCN)NC(=O)[C@@H](Cc2c[nH]c3ccccc23)NC(=O)[C@H](Cc2cccc3ccccc23)NC(=O)[C@H](Cc2ccccc2)N(C)C1=O
notes: Cyclic hexapeptide; also called cyclo[1Nal-DTrp-Lys-Val-Met-(N-Me)Phe]
- Ratio 2/5 in % (somatostatin receptor 5): 10.5%

B3: P2265 (peptide)
peptide: cyclo(Y[dW]KTM[NMeF])
SMILES: CSCC[C@@H]1NC(=O)[C@H]([C@@H](C)O)NC(=O)[C@H](CCCCN)NC(=O)[C@@H](Cc2c[nH]c3ccccc23)NC(=O)[C@H](Cc2ccc(O)cc2)NC(=O)[C@H](Cc2ccccc2)N(C)C1=O
notes: Cyclic hexapeptide; also called cyclo[Tyr-DTrp-Lys-Thr-Met-(NMe)Phe]
- Ratio 2/5 in % (somatostatin receptor 5): 1.2%

B4: P2326 (peptide)
peptide: cyclo([Dip][dW]KTM[NMeF])
SMILES: CSCC[C@@H]1NC(=O)[C@H]([C@@H](C)O)NC(=O)[C@H](CCCCN)NC(=O)[C@@H](Cc2c[nH]c3ccccc23)NC(=O)[C@H](C(c2ccccc2)c2ccccc2)NC(=O)[C@H](Cc2ccccc2)N(C)C1=O
notes: Cyclic hexapeptide; also called cyclo[DiphenylAla-DTrp-Lys-Thr-Met-(N-Me)Phe]
- Ratio 2/5 in % (somatostatin receptor 5): 0.42%

B5: P2266 (peptide)
peptide: cyclo(Y[dW]KVM[NMeF])
SMILES: CSCC[C@@H]1NC(=O)[C@H](C(C)C)NC(=O)[C@H](CCCCN)NC(=O)[C@@H](Cc2c[nH]c3ccccc23)NC(=O)[C@H](Cc2ccc(O)cc2)NC(=O)[C@H](Cc2ccccc2)N(C)C1=O
notes: Cyclic hexapeptide; also called cyclo[Tyr-DTrp-Lys-Val-Met-(NMe)Phe]
- Ratio 2/5 in % (somatostatin receptor 5): 3.2%

B6: P2297 (peptide)
peptide: cyclo([Thz][dW]KTMF)
SMILES: CSCC[C@@H]1NC(=O)[C@H]([C@@H](C)O)NC(=O)[C@H](CCCCN)NC(=O)[C@@H](Cc2c[nH]c3ccccc23)NC(=O)[C@@H]2CSCN2C(=O)[C@H](Cc2ccccc2)NC1=O
notes: Cyclic hexapeptide; also called cyclo[ThioPro-DTrp-Lys-Thr-Met-Phe]
- Ratio 2/5 in % (somatostatin receptor 5): 37.1%

B7: P2292 (peptide)
peptide: cyclo([Phe(4-F)][dW]KTM[NMeF])
SMILES: CSCC[C@@H]1NC(=O)[C@H]([C@@H](C)O)NC(=O)[C@H](CCCCN)NC(=O)[C@@H](Cc2c[nH]c3ccccc23)NC(=O)[C@H](Cc2ccc(F)cc2)NC(=O)[C@H](Cc2ccccc2)N(C)C1=O
notes: Cyclic hexapeptide; also called cyclo[Phe(4-F)-DTrp-Lys-Thr-Met-(N-Me)Phe]
- Ratio 2/5 in % (somatostatin receptor 5): 2%

The next lines start with the values.

- Ratio 2/5 in % (SSTR5): 0.96%
Molecule: CSCC[C@@H]1NC(=O)[C@H](CC2CC2)NC(=O)[C@H](CCCCN)NC(=O)[C@@H](Cc2c[nH]c3ccccc23)NC(=O)[C@H](Cc2ccc(O)cc2)NC(=O)[C@H](Cc2ccccc2)N(C)C1=O [P2300, cyclo[Tyr-DTrp-Lys-BAla(cyclopropyl)-Met-(N-Me)Phe]] (cyclo([Ala(cPr)]M[NMeF]Y[dW]K))

- Ratio 2/5 in % (SSTR5): 6.1%
Molecule: CSCC[C@@H]1NC(=O)[C@H]([C@@H](C)O)NC(=O)[C@H](CCCCN)NC(=O)[C@@H](Cc2c[nH]c3ccccc23)NC(=O)[C@H](Cc2ccc(O)cc2)NC(=O)[C@@H]2Cc3c([nH]c4ccccc34)CN2C1=O [P2274, cyclo[Tyr-DTrp-Lys-Thr-Met-Tpi]] (cyclo(Y[dW]KTM[Tpi]))

- Ratio 2/5 in % (SSTR5): 399.1%
Molecule: CC(C(=O)NCC(=O)NCCCC[C@@H]1NC(=O)[C@H]([C@@H](C)O)NC(=O)[C@H](CCCCN)NC(=O)[C@@H](Cc2c[nH]c3ccccc23)NC(=O)[C@H](Cc2cccc3ccccc23)NC(=O)[C@H](Cc2ccccc2)N(C)C1=O)N1CCN(CC(=O)O)CCN(CC(=O)O)CCN(CC(=O)O)CC1 (stereo partly drawn) [P2323, cyclo[1Nal-DTrp-Lys-Thr-Lys(GlyMeDOTA)-(N-Me)Phe]] (cyclo([1Nal][dW]KTK([Gly-X1])[NMeF]))

- Ratio 2/5 in % (SSTR5): 1.9%
Molecule: CSCC[C@@H]1NC(=O)[C@H](CN)NC(=O)[C@H](CCCCN)NC(=O)[C@@H](Cc2c[nH]c3ccccc23)NC(=O)[C@H](Cc2ccc(O)cc2)NC(=O)[C@H](Cc2ccccc2)N(C)C1=O [P2267, cyclo[Tyr-DTrp-Lys-Dpr-Met-(NMe)Phe]] (cyclo(Y[dW]K[Dap]M[NMeF]))
